From PMC6261655, “Harnessing a previously unidentified capability of bacterial allosteric transcription factors for sensing diverse small molecules in vitro” (Science Advances, 2018)

How the values were obtained:
HosA = HosA (Escherichia coli, UniProt Q7ABA6); assay: isothermal titration calorimetry; assay type: binding
HucR = target: T1, HucR (Deinococcus radiodurans, UniProt Q9RV71); assay: isothermal titration calorimetry; assay type: binding
T1 sequence (Q9RV71 1-181): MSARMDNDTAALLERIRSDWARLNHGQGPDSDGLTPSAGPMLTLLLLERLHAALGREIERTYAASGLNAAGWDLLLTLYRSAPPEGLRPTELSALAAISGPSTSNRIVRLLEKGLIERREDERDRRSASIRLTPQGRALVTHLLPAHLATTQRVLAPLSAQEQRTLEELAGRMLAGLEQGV

TetR = TetR (Escherichia coli, UniProt P04483 1-207); assay: BLI; BLI: HBS-EP (10 mM Hepes, 15 mM NaCl, 3 mM EDTA, 0.005% Tween 20, 0.1% BSA, pH 7.4), temperature not stated; EMSA: 20 mM Tris-HCl pH 7.5, 2 mM DTT, 5 mM MgCl2; conditions: protein: recombinant, chain copies: 2, label: 5'-biotin on strand 1, blunt
Sequence of TetR (P04483 whole entry): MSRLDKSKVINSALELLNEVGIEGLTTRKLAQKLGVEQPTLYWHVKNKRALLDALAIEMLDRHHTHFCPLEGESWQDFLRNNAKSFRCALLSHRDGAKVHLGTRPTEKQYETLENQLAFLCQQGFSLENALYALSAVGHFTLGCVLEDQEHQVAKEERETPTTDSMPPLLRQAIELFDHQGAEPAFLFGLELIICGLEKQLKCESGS

AvaR1 = target: T2, AvaR1 (Streptomyces avermitilis, UniProt Q82H41 1-234); assay: as above; conditions: protein: recombinant, label: 5'-biotin on strand 1, blunt
T2 sequence: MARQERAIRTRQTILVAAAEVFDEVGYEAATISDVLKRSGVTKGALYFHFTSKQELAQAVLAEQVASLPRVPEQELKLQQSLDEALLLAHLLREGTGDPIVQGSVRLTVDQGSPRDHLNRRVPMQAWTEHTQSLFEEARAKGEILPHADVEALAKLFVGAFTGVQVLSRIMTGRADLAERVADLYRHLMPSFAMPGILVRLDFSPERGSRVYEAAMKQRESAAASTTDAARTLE

Sequence of HosA (Q7ABA6 whole entry, looked up): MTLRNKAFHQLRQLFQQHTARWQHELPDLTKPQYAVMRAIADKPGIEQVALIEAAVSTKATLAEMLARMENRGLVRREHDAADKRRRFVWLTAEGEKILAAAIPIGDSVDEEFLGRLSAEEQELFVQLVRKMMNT

For O=C(O)c1ccc(O)cc1 [4-HBA], the Kd (HosA) was 4.74 ± 0.25 µM.

In the case of O=c1[nH]c(=O)c2[nH]c(=O)[nH]c2[nH]1 [UA], the Kd (HucR) is reported as 9.35 ± 0.99 µM.

B1: DNATetR-0 (dsDNA)
DNA 1: CCTCCGATTTTCAGATTGACACTCTATCATTGATAGGGATATATTCCAACTCTATCAAT
DNA 2: ATTGATAGAGTTGGAATATATCCCTATCAATGATAGAGTGTCAATCTGAAAATCGGAGG
B1 was tested, and the Kd (TetR) was 1.08 ± 0.06 nM.

B2: DNATetR-1 (dsDNA)
DNA 1: CCTCCGATTTTCAGATTGACACTCTATCATTGATAGGGATATATTCCAACTCTATCAAT
DNA 2: ATTGATAGAGTTGGAATATATCCCTATCAATGATAGAGTG
DNA 3: TCAATCTGAAAATCGGAGG
modifications: nick in bottom strand
For B2, the Kd (TetR; nicked 1:2 1:3) was 1.3 ± 0.04 nM.

B3: DNATetR-2 (dsDNA)
DNA 1: CCTCCGATTTTCAGATTGACACTCTATCATTGATAGGGATATATTCCAACTCTATCAAT
DNA 2: ATTGATAGAGTTGGAATATATCCCTATCAATGATAGAG
DNA 3: TGTCAATCTGAAAATCGGAGG
modifications: nick in bottom strand
Work on B3 yielded a Kd (TetR; nicked 1:2 1:3) of 1.78 ± 0.07 nM.

B4: DNATetR-3 (dsDNA)
DNA 1: CCTCCGATTTTCAGATTGACACTCTATCATTGATAGGGATATATTCCAACTCTATCAAT
DNA 2: ATTGATAGAGTTGGAATATATCCCTATCAATGATAG
DNA 3: AGTGTCAATCTGAAAATCGGAGG
modifications: nick in bottom strand
With B4 the Kd (TetR; nicked 1:2 1:3) was 1.72 ± 0.11 nM.

B5: DNATetR-4 (dsDNA)
DNA 1: CCTCCGATTTTCAGATTGACACTCTATCATTGATAGGGATATATTCCAACTCTATCAAT
DNA 2: ATTGATAGAGTTGGAATATATCCCTATCAATGAT
DNA 3: AGAGTGTCAATCTGAAAATCGGAGG
modifications: nick in bottom strand
Molecule B5 has a Kd (TetR; nicked 1:2 1:3) of 1.89 ± 0.07 nM.

B6: DNATetR-5 (dsDNA)
DNA 1: CCTCCGATTTTCAGATTGACACTCTATCATTGATAGGGATATATTCCAACTCTATCAAT
DNA 2: ATTGATAGAGTTGGAATATATCCCTATCAATG
DNA 3: ATAGAGTGTCAATCTGAAAATCGGAGG
modifications: nick in bottom strand
B6 gave a Kd (TetR; nicked 1:2 1:3) of 1.91 ± 0.03 nM.

B7: DNATetR-6 (dsDNA)
DNA 1: CCTCCGATTTTCAGATTGACACTCTATCATTGATAGGGATATATTCCAACTCTATCAAT
DNA 2: ATTGATAGAGTTGGAATATATCCCTATCAA
DNA 3: TGATAGAGTGTCAATCTGAAAATCGGAGG
modifications: nick in bottom strand
B7 showed a Kd (TetR; nicked 1:2 1:3) of 2 ± 0.59 nM.

B8: DNATetR-7 (dsDNA)
DNA 1: CCTCCGATTTTCAGATTGACACTCTATCATTGATAGGGATATATTCCAACTCTATCAAT
DNA 2: ATTGATAGAGTTGGAATATATCCCTATCA
DNA 3: ATGATAGAGTGTCAATCTGAAAATCGGAGG
modifications: nick in bottom strand
With B8 the Kd (TetR; nicked 1:2 1:3) was 1.85 ± 0.06 nM.

B9: DNATetR-8 (dsDNA)
DNA 1: CCTCCGATTTTCAGATTGACACTCTATCATTGATAGGGATATATTCCAACTCTATCAAT
DNA 2: ATTGATAGAGTTGGAATATATCCCTAT
DNA 3: CAATGATAGAGTGTCAATCTGAAAATCGGAGG
modifications: nick in bottom strand
In the case of B9, the Kd (TetR; nicked 1:2 1:3) is reported as 1.52 ± 0.044 nM.

B10: DNATetR-9 (dsDNA)
DNA 1: CCTCCGATTTTCAGATTGACACTCTATCATTGATAGGGATATATTCCAACTCTATCAAT
DNA 2: ATTGATAGAGTTGGAATATATCCCT
DNA 3: ATCAATGATAGAGTGTCAATCTGAAAATCGGAGG
modifications: nick in bottom strand
B10 showed a Kd (TetR; nicked 1:2 1:3) of 0.67 ± 0.03 nM.

B11: DNATetR-10 (dsDNA)
DNA 1: CCTCCGATTTTCAGATTGACACTCTATCATTGATAGGGATATATTCCAACTCTATCAAT
DNA 2: ATTGATAGAGTTGGAATATATCC
DNA 3: CTATCAATGATAGAGTGTCAATCTGAAAATCGGAGG
modifications: nick in bottom strand
B11 was tested, and the Kd (TetR; nicked 1:2 1:3) was 1.22 ± 0.03 nM.

B12: DNATetR-11 (dsDNA)
DNA 1: CCTCCGATTTTCAGATTGACACTCTATCATTGATAGGGATATATTCCAACTCTATCAAT
DNA 2: ATTGATAGAGTTGGAATATAT
DNA 3: CCCTATCAATGATAGAGTGTCAATCTGAAAATCGGAGG
modifications: nick in bottom strand
In the case of B12, the Kd (TetR; nicked 1:2 1:3) is reported as 1.58 ± 0.04 nM.

B13: DNATetR-12 (dsDNA)
DNA 1: CCTCCGATTTTCAGATTGACACTCTATCATTGATAGGGATATATTCCAACTCTATCAAT
DNA 2: ATTGATAGAGTTGGAATAT
DNA 3: ATCCCTATCAATGATAGAGTGTCAATCTGAAAATCGGAGG
modifications: nick in bottom strand
B13 showed a Kd (TetR; nicked 1:2 1:3) of 1.1 ± 0.05 nM.

B14: DNAAvaR1-0 (dsDNA)
DNA 1: CGCAAGAGGGACTTGAAGACAAAACCGTCTAGTACGTATCTTTGACCTCCAGCTCTTCC
DNA 2: GGAAGAGCTGGAGGTCAAAGATACGTACTAGACGGTTTTGTCTTCAAGTCCCTCTTGCG
B14 showed a Kd (AvaR1) of 11.7 ± 0.028 nM.

B15: DNAAvaR1-1 (dsDNA)
DNA 1: CGCAAGAGGGACTTGAAGACAAAACCGTCTAGTACGTATCTTTGACCTCCAGCTCTTCC
DNA 2: GGAAGAGCTGGAGGTCAAAGATACGTACTAGACGGTTTTG
DNA 3: TCTTCAAGTCCCTCTTGCG
modifications: nick in bottom strand
In the case of B15, the Kd (AvaR1; nicked 1:2 1:3) is reported as 18.3 ± 0.052 nM.

B16: DNAAvaR1-2 (dsDNA)
DNA 1: CGCAAGAGGGACTTGAAGACAAAACCGTCTAGTACGTATCTTTGACCTCCAGCTCTTCC
DNA 2: GGAAGAGCTGGAGGTCAAAGATACGTACTAGACGGTTT
DNA 3: TGTCTTCAAGTCCCTCTTGCG
modifications: nick in bottom strand
B16 was tested, and the Kd (AvaR1; nicked 1:2 1:3) was 15.1 ± 0.034 nM.

B17: DNAAvaR1-3 (dsDNA)
DNA 1: CGCAAGAGGGACTTGAAGACAAAACCGTCTAGTACGTATCTTTGACCTCCAGCTCTTCC
DNA 2: GGAAGAGCTGGAGGTCAAAGATACGTACTAGACGGT
DNA 3: TTTGTCTTCAAGTCCCTCTTGCG
modifications: nick in bottom strand
B17 was tested, and the Kd (AvaR1; nicked 1:2 1:3) was 17 ± 0.052 nM.

B18: DNAAvaR1-4 (dsDNA)
DNA 1: CGCAAGAGGGACTTGAAGACAAAACCGTCTAGTACGTATCTTTGACCTCCAGCTCTTCC
DNA 2: GGAAGAGCTGGAGGTCAAAGATACGTACTAGACG
DNA 3: GTTTTGTCTTCAAGTCCCTCTTGCG
modifications: nick in bottom strand
B18 showed a Kd (AvaR1; nicked 1:2 1:3) of 16 ± 0.032 nM.

B19: DNAAvaR1-5 (dsDNA)
DNA 1: CGCAAGAGGGACTTGAAGACAAAACCGTCTAGTACGTATCTTTGACCTCCAGCTCTTCC
DNA 2: GGAAGAGCTGGAGGTCAAAGATACGTACTAGA
DNA 3: CGGTTTTGTCTTCAAGTCCCTCTTGCG
modifications: nick in bottom strand
Molecule B19 has a Kd (AvaR1; nicked 1:2 1:3) of 14 ± 0.027 nM.

B20: DNAAvaR1-6 (dsDNA)
DNA 1: CGCAAGAGGGACTTGAAGACAAAACCGTCTAGTACGTATCTTTGACCTCCAGCTCTTCC
DNA 2: GGAAGAGCTGGAGGTCAAAGATACGTACTA
DNA 3: GACGGTTTTGTCTTCAAGTCCCTCTTGCG
modifications: nick in bottom strand
B20 was tested, and the Kd (AvaR1; nicked 1:2 1:3) was 12.6 ± 0.021 nM.

B21: DNAAvaR1-7 (dsDNA)
DNA 1: CGCAAGAGGGACTTGAAGACAAAACCGTCTAGTACGTATCTTTGACCTCCAGCTCTTCC
DNA 2: GGAAGAGCTGGAGGTCAAAGATACGTAC
DNA 3: TAGACGGTTTTGTCTTCAAGTCCCTCTTGCG
modifications: nick in bottom strand
B21 gave a Kd (AvaR1; nicked 1:2 1:3) of 10.8 ± 0.03 nM.

B22: DNAAvaR1-8 (dsDNA)
DNA 1: CGCAAGAGGGACTTGAAGACAAAACCGTCTAGTACGTATCTTTGACCTCCAGCTCTTCC
DNA 2: GGAAGAGCTGGAGGTCAAAGATACGT
DNA 3: ACTAGACGGTTTTGTCTTCAAGTCCCTCTTGCG
modifications: nick in bottom strand
With B22 the Kd (AvaR1; nicked 1:2 1:3) was 14.1 ± 0.025 nM.

B23: DNAAvaR1-9 (dsDNA)
DNA 1: CGCAAGAGGGACTTGAAGACAAAACCGTCTAGTACGTATCTTTGACCTCCAGCTCTTCC
DNA 2: GGAAGAGCTGGAGGTCAAAGATAC
DNA 3: GTACTAGACGGTTTTGTCTTCAAGTCCCTCTTGCG
modifications: nick in bottom strand
B23 was tested, and the Kd (AvaR1; nicked 1:2 1:3) was 22.2 ± 0.245 nM.

B24: DNAAvaR1-10 (dsDNA)
DNA 1: CGCAAGAGGGACTTGAAGACAAAACCGTCTAGTACGTATCTTTGACCTCCAGCTCTTCC
DNA 2: GGAAGAGCTGGAGGTCAAAGAT
DNA 3: ACGTACTAGACGGTTTTGTCTTCAAGTCCCTCTTGCG
modifications: nick in bottom strand
B24 showed a Kd (AvaR1; nicked 1:2 1:3) of 11 ± 0.026 nM.

B25: DNAAvaR1-11 (dsDNA)
DNA 1: CGCAAGAGGGACTTGAAGACAAAACCGTCTAGTACGTATCTTTGACCTCCAGCTCTTCC
DNA 2: GGAAGAGCTGGAGGTCAAAG
DNA 3: ATACGTACTAGACGGTTTTGTCTTCAAGTCCCTCTTGCG
modifications: nick in bottom strand
With B25 the Kd (AvaR1; nicked 1:2 1:3) was 13 ± 0.027 nM.

B26: DNAAvaR1-12 (dsDNA)
DNA 1: CGCAAGAGGGACTTGAAGACAAAACCGTCTAGTACGTATCTTTGACCTCCAGCTCTTCC
DNA 2: GGAAGAGCTGGAGGTCAA
DNA 3: AGATACGTACTAGACGGTTTTGTCTTCAAGTCCCTCTTGCG
modifications: nick in bottom strand
B26 was tested, and the Kd (AvaR1; nicked 1:2 1:3) was 8.33 ± 0.015 nM.
